Target: Pax3 (GST fusion or 6xHis) (UniProt P24610 P24610:1-479)
Test: EMSA; 25 C
Details: tags: GST-Pax3 or 6xHis-Pax3, bacterially expressed; label: 32P; overhangs
Procedure: Probes were generated by end-labeling double-stranded oligonucleotides with γ³² P-dATP or PCR labeling with α³²P-dGTP. Probes were incubated with or without 6×-His-Pax3 or GST-PAX3 at 25° C., and the complexes were resolved on a 6% Tris-glycine polyacrylamide gel. The free probes are designated by the bottom bracket, and the shifted Pax3:DNA complex by the asterisk to the right of each gel.
Probes were generated by end labeling double-stranded oligonucleotides with γ³²P-dATP or PCR labeling with α³²P-dGTP. Probes were incubated with or without 6×-His-Pax3 or GST-PAX3 at 25° C., and the complexes were resolved on a 6% Tris-glycine polyacrylamide gel. The location of the free probes is indicated by the bracket at left, and the shifted Pax3:DNA complexes by the asterisks to the right of each gel.

Sequence of Pax3 (GST fusion or 6xHis) (P24610 whole entry, the tested form may be a part, one chain of several): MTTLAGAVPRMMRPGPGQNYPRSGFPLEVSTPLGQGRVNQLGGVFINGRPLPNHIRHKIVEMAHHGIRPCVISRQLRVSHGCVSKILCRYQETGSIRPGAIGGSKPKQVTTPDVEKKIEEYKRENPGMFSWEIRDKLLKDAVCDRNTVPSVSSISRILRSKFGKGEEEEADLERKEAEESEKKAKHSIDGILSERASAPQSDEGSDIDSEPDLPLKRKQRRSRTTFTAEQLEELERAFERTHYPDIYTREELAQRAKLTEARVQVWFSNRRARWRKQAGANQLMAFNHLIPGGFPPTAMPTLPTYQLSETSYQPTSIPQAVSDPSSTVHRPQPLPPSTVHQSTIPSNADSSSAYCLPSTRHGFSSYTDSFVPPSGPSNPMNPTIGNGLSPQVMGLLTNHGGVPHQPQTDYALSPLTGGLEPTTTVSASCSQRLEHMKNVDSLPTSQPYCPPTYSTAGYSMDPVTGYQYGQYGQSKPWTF

B1: 2x Pax3 oligo (dsDNA)
DNA 1: CAGTGACGATTAGCACCGTCACGCTTAGATATAGTGACGATTAGCACCGTCACGCTTAGATATA
DNA 2: CGCGTATATCTAAGCGTGACGGTGCTAATCGTCACTATATCTAAGAGTGACGGTGCTAATCGTCACTGAGCT
  binding result: binds
